Data on 1 molecule can be found in publication PMC7237134.

Holding throughout (experiment): fluorescence anisotropy
One data set addresses T1, Sgd1 Nterm-MIF4G (Saccharomyces cerevisiae, UniProt Q06132 1-541).
T1 sequence: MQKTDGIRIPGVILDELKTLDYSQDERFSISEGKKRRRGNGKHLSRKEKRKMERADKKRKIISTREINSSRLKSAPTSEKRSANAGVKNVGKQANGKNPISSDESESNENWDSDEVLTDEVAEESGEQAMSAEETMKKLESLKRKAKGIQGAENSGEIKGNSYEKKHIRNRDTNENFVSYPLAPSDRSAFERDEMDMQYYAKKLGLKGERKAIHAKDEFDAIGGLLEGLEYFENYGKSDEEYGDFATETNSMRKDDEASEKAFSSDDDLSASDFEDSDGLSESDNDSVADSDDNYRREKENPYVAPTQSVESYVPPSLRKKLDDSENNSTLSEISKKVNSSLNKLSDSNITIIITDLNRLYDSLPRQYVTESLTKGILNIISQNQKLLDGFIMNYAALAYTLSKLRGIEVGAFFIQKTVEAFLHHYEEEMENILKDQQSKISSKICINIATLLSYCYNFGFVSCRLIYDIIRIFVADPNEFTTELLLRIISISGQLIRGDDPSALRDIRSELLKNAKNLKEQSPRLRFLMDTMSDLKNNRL

Data set [1] has as its target T2, Sgd1 MIF4G-Cterm (MIF4G, MA3 and C-terminal region) (Saccharomyces cerevisiae, UniProt Q06132 330-899).
T2 sequence: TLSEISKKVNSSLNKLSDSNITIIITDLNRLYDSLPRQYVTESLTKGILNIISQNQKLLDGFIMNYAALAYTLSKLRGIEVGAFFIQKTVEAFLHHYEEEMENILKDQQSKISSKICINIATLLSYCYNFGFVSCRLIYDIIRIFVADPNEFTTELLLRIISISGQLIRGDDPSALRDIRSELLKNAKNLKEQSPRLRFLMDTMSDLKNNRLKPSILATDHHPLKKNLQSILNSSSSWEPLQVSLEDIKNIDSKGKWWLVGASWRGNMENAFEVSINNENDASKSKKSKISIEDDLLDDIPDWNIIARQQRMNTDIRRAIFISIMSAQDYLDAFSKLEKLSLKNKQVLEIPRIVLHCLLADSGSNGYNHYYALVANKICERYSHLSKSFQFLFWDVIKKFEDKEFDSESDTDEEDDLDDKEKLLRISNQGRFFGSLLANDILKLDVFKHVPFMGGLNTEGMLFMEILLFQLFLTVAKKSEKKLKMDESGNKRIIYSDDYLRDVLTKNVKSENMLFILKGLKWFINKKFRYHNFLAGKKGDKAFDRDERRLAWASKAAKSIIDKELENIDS

For a further data set, the target named is T3, Sgd1 MA3-Cterm (Saccharomyces cerevisiae, UniProt Q06132 645-899).
T3 sequence: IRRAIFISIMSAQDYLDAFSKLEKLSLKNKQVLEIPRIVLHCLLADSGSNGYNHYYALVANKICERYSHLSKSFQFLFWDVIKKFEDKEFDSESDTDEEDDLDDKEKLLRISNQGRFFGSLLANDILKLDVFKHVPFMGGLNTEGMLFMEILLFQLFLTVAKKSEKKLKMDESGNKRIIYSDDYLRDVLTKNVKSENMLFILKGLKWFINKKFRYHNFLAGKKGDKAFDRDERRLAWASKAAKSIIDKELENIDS

On to GUAAUGAAAGU (ssRNA) [11 nt Atto647-labelled RNA], for which the values for the binding result (in the data set with Sgd1 Nterm-MIF4G; in data set [1]; with Sgd1 MA3-Cterm) were “no binding”, “binds” and “binds”, respectively.
